# Data from US20170050988A1, “DOTAM DERIVATIVES FOR THERAPEUTIC USE” (priority 2013, published 2017).
# Entries after “also recorded” stand apart in the source; their conditions may differ. Starred links: 1 amine or outer side, 2 acyl side, 3 side chain; linkers in the order of their positions; H or OH if unused. Positions of bridges follow the written chain, without caps; N, C: chain ends. Non-standard residues stand in square brackets, D forms with d. Residues, ends and D or L forms follow the SMILES beside them. Chains are numbered I, II in the order given. *: point of attachment. X1 = CN1/C(=C/C=C/C=C/C2=[N+](CCCCCC(=O)NCCOCCOCCNC(=O)CN3CCN(CC(=O)NCCOCCOCCN[*:1])CCN(CC(=O)NCCOCCOCCN[*:3])CCN(CC(=O)NCCOCCOCCN[*:2])CC3)c3ccc4ccccc4c3C2(C)C)C(C)(C)c2c1ccc1ccccc21; X4 = CN1/C(=C/C=C/C=C/C2=[N+](CCCCCC(=O)NCCOCCOCCN*)c3ccc4ccccc4c3C2(C)C)C(C)(C)c2c1ccc1ccccc21; Sta = CC(C)C[C@H](N)[C@@H](O)CC(=O)O; Isovaleryl = CC(C)CC(=O)*
# Assays:
# [1] = in vivo; settings: male, C57BL/6J, mouse, in vivo
# Procedure: (§1) Measurement of In Vivo Half Life of Compounds in Mice
# (§2) Male C57 BL/6J mice aged 10 weeks were purchased from Harlan Laboratories (Blackthorn, Bicester, UK). Mice were housed in groups of 6 in individually vented cages, maintained at 21±2° C. on a 12-hour light/dark cycle and with food provided ad libitum. All experimental protocols were performed in compliance with the UK Animals (Scientific Procedures) Act 1986 regulations for the handling and use of laboratory animals (Home Office project license PPL no: 70/7288).
# (§3) One hundred nanomoles of each of the compounds were injected into the intra-articular space following induction of anaesthesia by gaseous anaesthetic (2% isofluorane and O2). Planar fluorescence images of the knee joints was captured at the time points indicated by capturing the emission at 700 nm for 1 min after exposure at 630 nm under gaseous anaesthesia (2.5% isofluorane and O2) in a Kodak In Vivo FX Pro (Carestream, Woodbridge, USA). Planar X-ray images were obtained by exposure to X-rays for 20 seconds for co-registration purposes.
# (§4) To calculate the half lives of the compounds in the joint, fluorescence images were analysed using the Carestream MI software (version 5.1). Circular regions of interest (ROI) of 25 pixels in diameter were defined to encompass the knee joint, which was defined by co-registration of X-ray images. The mean fluorescence intensity (MFI) of the ROI was obtained. Fluorescence images shown are false coloured using the rainbow spectrum, with purple being the lowest value and red being the highest value, and the range indicated in the figures. […] All statistical analysis was carried out using the Prism Software (Graphpad, La Jolla, USA).
# (§5) We further evaluated the binding capacity of the probes to cartilage in vivo using optical imaging. 0.1 μmol of each of the compounds were injected intra-articularly into the knees of mice, and in vivo fluorescent microscopy and X-ray were used to quantify localization and retention. The decay in signal was fitted to a two-phase exponential decay model to describe the rapid clearance of unbound probe from the joint and the slow clearance of bound probe from the cartilage (n=5).
# [2] = test system: knee joints of mice; assay: In vivo half life / retention of Cy5.5 probes in mouse knee joints (optical imaging)
# Procedure: as §1, §2, §3, §4, §5
# [3] = test system: pig articular cartilage explants; assay: Ex vivo GAG release model with pig articular cartilage explants; format: cell-based; settings: explants pre-incubated with 1 μM inhibitor 24 h, then washed
# [4] = biological target: T1, Cathepsin D (Homo sapiens, UniProt P07339); assay: Cathepsin D enzyme assay; format: biochemical; settings: purified Cathepsin D, pH 4.5, 37° C.; read-out: IC50
# T1 construct: purchased Biomol Se-199
# Procedure: For quantification of Cathepsin D inhibitory activity, an enzymatic assay was used that measures the turnover of a quenched, fluorescenctly-labeled, Cathepsin D-cleavable, peptide substrate over time.
# Specifically, 13 ng of purified Cathepsin D enzyme (Biomol; Cat.No. Se-199) was administered per well of a 96 well plate, substance/inhibitor of interest was added and the mixture incubated for 10 min. at 37° C. Then, the enzymatic reaction was started by addition of fluorescenctly-labeled, Cathepsin D-Substrat ([…] (7-Methoxycoumarin-4-yl)-acetyl-Pro-Leu-Gly-Leu-(3 [2,4-dinitrophenyl]-L-2,3-diaminopropionyl)-Ala-Arg-NH2 (Bachem M-1895). The reaction volume amounts to 30 μl and contains 50 mM acetic acid, 200 mM NaCl and 0.003% Brij 35 and was adjusted to pH 4.5 with acetic acid. By cleavage of the peptide chain, the […] is released and the emission of fluorescence dye is measured using excitation/emission wavelengths ([…]) on a Tecan Spectrafluor Plus—instrument at 37° C. for 10 min. For the determination of the compound dose response, a 10 mM DMSO stock solution was diluted and tested in a ten-point, three-fold dilution series run in duplicate beginning at 30 μM final concentration. Data were analyzed using a four-parameter curve fit with a fixed minimum and maximum experimentally defined as the average positive and negative controls on each plate.
# [5] = test system: pig articular cartilage explants; assay: Ex vivo binding assay with pig articular cartilage explants; settings: 5 μM probe, 24 h incubation, washed; integrated fluorescence
# Procedure: To evaluate the cartilage targeting affinities of these five DOTAM-derived compounds, we performed an ex vivo binding assay of these Cy 5.5-labeled probes with pig articular cartilage explants. In these ex vivo experiments, whole-depth pig articular cartilage blocks were incubated with 5 μM of each probe for 24 h, washed 3 times for 10 min each with PBS buffer at 37° C. to remove non-binding probes, then imaged using fluorescent microscopy. The intensity of the near infrared fluorescent signal from Cy 5.5 presents the relevant amount of these probes remaining in the cartilage.
# [6] = Solubility in phosphate buffer; format: physicochemical; settings: phosphate buffer at pH 7.4
# [7] = 100 nmol, First Half Life (h), 100 nmol intra-articular, mouse knee, two phase decay fit of fluorescence, fast half life (t1), loss from the joint space
# [8] = 100 nmol, Terminal Half Life (h), 100 nmol intra-articular, mouse knee, two phase decay fit, slower half life (t2, t1/2beta), loss of cartilage-bound compound
# T1 sequence (P07339 65-412): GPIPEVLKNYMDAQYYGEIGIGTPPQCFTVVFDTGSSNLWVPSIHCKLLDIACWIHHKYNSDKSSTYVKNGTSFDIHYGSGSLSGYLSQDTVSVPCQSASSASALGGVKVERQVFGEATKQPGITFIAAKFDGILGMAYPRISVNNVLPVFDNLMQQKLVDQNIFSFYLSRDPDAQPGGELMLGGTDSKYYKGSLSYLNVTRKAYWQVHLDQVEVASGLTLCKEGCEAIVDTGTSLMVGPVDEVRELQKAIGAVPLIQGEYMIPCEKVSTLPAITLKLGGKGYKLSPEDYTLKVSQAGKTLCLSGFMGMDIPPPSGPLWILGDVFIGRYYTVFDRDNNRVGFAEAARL
molecule,measurement,setting,value
"CC(=O)N[C@@H](Cc1ccc(O)cc1)C(=O)N[C@@H](CCCNC(=N)N)C(=O)N[C@@H](CC(C)C)C(=O)NCC(=O)N[C@@H](CCCNC(=N)N)C(=O)N[C@@H](Cc1c[nH]c2ccccc12)C(=O)NCCOCCOCCNC(=O)CCCCC[N+]1=C(/C=C/C=C/C=C2/N(C)c3ccc4ccccc4c3C2(C)C)C(C)(C)c2c1ccc1ccccc21 [HHY-258B, AcYRLGRW-Cy5.5] (Ac-YRLGRW-X4)",half-life,[1]; First Half Life (h),2 h
same,half-life,[1]; Terminal Half Life (h),35 h
"CC(=O)N[C@@H](Cc1c[nH]c2ccccc12)C(=O)N[C@@H](Cc1ccc(O)cc1)C(=O)N[C@@H](CCCNC(=N)N)C(=O)NCC(=O)N[C@@H](CCCNC(=N)N)C(=O)N[C@@H](CC(C)C)C(=O)NCCOCCOCCNC(=O)CCCCC[N+]1=C(/C=C/C=C/C=C2/N(C)c3ccc4ccccc4c3C2(C)C)C(C)(C)c2c1ccc1ccccc21 [HHY-259B, AcWYRGRL-Cy 5.5] (Ac-WYRGRL-X4)",half-life,[1]; [7],2.3 h
same,half-life,[1]; [8],205 h
"CC(=O)N[C@@H](Cc1c[nH]c2ccccc12)C(=O)N[C@@H](Cc1ccc(O)cc1)C(=O)N[C@@H](CCCNC(=N)N)C(=O)NCC(=O)N[C@@H](CCCNC(=N)N)C(=O)N[C@@H](CC(C)C)C(=O)NCCOCCOCCNC(=O)CN1CCN(CC(=O)NCCOCCOCCNC(=O)CCCCC[N+]2=C(/C=C/C=C/C=C3/N(C)c4ccc5ccccc5c4C3(C)C)C(C)(C)c3c2ccc2ccccc32)CCN(CC(=O)NCCOCCOCCNC(=O)[C@H](CC(C)C)NC(=O)[C@H](CCCNC(=N)N)NC(=O)CNC(=O)[C@H](CCCNC(=N)N)NC(=O)[C@H](Cc2ccc(O)cc2)NC(=O)[C@H](Cc2c[nH]c3ccccc23)NC(C)=O)CCN(CC(=O)NCCOCCOCCNC(=O)[C@H](CC(C)C)NC(=O)[C@H](CCCNC(=N)N)NC(=O)CNC(=O)[C@H](CCCNC(=N)N)NC(=O)[C@H](Cc2ccc(O)cc2)NC(=O)[C@H](Cc2c[nH]c3ccccc23)NC(C)=O)CC1 [HHY-290, (AcWYRGRL)3-DOTA-Cy5.5] (I: Ac-WYRGRL / II: Ac-WYRGRL / III: Ac-WYRGRL; linker I:C-II:C-III:C via X1)",half-life,[1]; [7],8.9 h
same,half-life,[1]; [8],1280 h
same,retained initial signal,"[2]; 8 days after intra-articular injection, 0.1 μmol, mouse knee",40%
"CC(=O)N[C@@H](Cc1ccc(O)cc1)C(=O)N[C@@H](CCCNC(=N)N)C(=O)N[C@@H](CC(C)C)C(=O)NCC(=O)N[C@@H](CCCNC(=N)N)C(=O)N[C@@H](Cc1c[nH]c2ccccc12)C(=O)NCCOCCOCCNC(=O)CN1CCN(CC(=O)NCCOCCOCCNC(=O)CCCCC[N+]2=C(/C=C/C=C/C=C3/N(C)c4ccc5ccccc5c4C3(C)C)C(C)(C)c3c2ccc2ccccc32)CCN(CC(=O)NCCOCCOCCNC(=O)[C@H](Cc2c[nH]c3ccccc23)NC(=O)[C@H](CCCNC(=N)N)NC(=O)CNC(=O)[C@H](CC(C)C)NC(=O)[C@H](CCCNC(=N)N)NC(=O)[C@H](Cc2ccc(O)cc2)NC(C)=O)CCN(CC(=O)NCCOCCOCCNC(=O)[C@H](Cc2c[nH]c3ccccc23)NC(=O)[C@H](CCCNC(=N)N)NC(=O)CNC(=O)[C@H](CC(C)C)NC(=O)[C@H](CCCNC(=N)N)NC(=O)[C@H](Cc2ccc(O)cc2)NC(C)=O)CC1 [HHY-293, (AcYRLGRW)3-DOTA-Cy5.5] (I: Ac-YRLGRW / II: Ac-YRLGRW / III: Ac-YRLGRW; linker I:C-II:C-III:C via X1)",half-life,[1]; First Half Life (h),3 h
same,half-life,[1]; Terminal Half Life (h),19 h
same,Terminal Half Life,"[2]; male, C57BL/6J, mouse, in vivo",18.75 h
"CC(=O)N[C@@H](Cc1c[nH]c2ccccc12)C(=O)N[C@@H](Cc1ccc(O)cc1)C(=O)N[C@@H](CCCNC(=N)N)C(=O)NCC(=O)N[C@@H](CCCNC(=N)N)C(=O)N[C@@H](CC(C)C)C(=O)NCCOCCOCCNC(=O)CN1CCN(CC(=O)NCCOCCOCCNC(=O)C[C@H](O)[C@H](CC(C)C)NC(=O)[C@H](C)NC(=O)C[C@H](O)[C@H](CC(C)C)NC(=O)[C@@H](NC(=O)[C@@H](NC(=O)CC(C)C)C(C)C)C(C)C)CCN(CC(=O)NCCOCCOCCNC(=O)[C@H](CC(C)C)NC(=O)[C@H](CCCNC(=N)N)NC(=O)CNC(=O)[C@H](CCCNC(=N)N)NC(=O)[C@H](Cc2ccc(O)cc2)NC(=O)[C@H](Cc2c[nH]c3ccccc23)NC(C)=O)CCN(CC(=O)NCCOCCOCCNC(=O)[C@H](CC(C)C)NC(=O)[C@H](CCCNC(=N)N)NC(=O)CNC(=O)[C@H](CCCNC(=N)N)NC(=O)[C@H](Cc2ccc(O)cc2)NC(=O)[C@H](Cc2c[nH]c3ccccc23)NC(C)=O)CC1 [HHY-299, (AcWYRGRL)3-DOTA-Pepstatin A]",inhibition of GAG release,[3]; 24 hours after stimulation at pH 5.0,34%
same,inhibition of GAG release,[3]; 48 hours after stimulation at pH 5.0,18%
same,IC50,[4],3.3 nM
"CC(=O)N[C@@H](Cc1c[nH]c2ccccc12)C(=O)N[C@@H](Cc1ccc(O)cc1)C(=O)N[C@@H](CCCNC(=N)N)C(=O)NCC(=O)N[C@@H](CCCNC(=N)N)C(=O)N[C@@H](CC(C)C)C(=O)NCCOCCOCCNC(=O)CN1CCN(CC(=O)NCCOCCOCCN)CCN(CC(=O)NCCOCCOCCN)CCN(CC(=O)NCCOCCOCCNC(=O)CCCCC[N+]2=C(/C=C/C=C/C=C3/N(C)c4ccc5ccccc5c4C3(C)C)C(C)(C)c3c2ccc2ccccc32)CC1 [HHY-312, AcWYRGRL-DOTA-Cy5.5]",half-life,[1]; First Half Life (h),4 h
same,half-life,[1]; Terminal Half Life (h),210 h
same,Terminal Half Life,"[2]; male, C57BL/6J, mouse, in vivo",210.7 h
same,fold mean increase of probe accumulation in cartilage vs non-targeted HHY-306,[5],11.2 fold
same,fold mean increase of probe accumulation in cartilage vs scrambled HHY-322,[5],6.0 fold
"CC(=O)N[C@@H](Cc1ccc(O)cc1)C(=O)N[C@@H](CCCNC(=N)N)C(=O)N[C@@H](CC(C)C)C(=O)NCC(=O)N[C@@H](CCCNC(=N)N)C(=O)N[C@@H](Cc1c[nH]c2ccccc12)C(=O)NCCOCCOCCNC(=O)CN1CCN(CC(=O)NCCOCCOCN)CCN(CC(=O)NCCOCCOCCN)CCN(CC(=O)NCCOCCOCCNC(=O)CCCCCN2c3ccc4ccccc4c3C(C)(C)C2/C=C/C=C/C=C2/N(C)c3ccc4ccccc4c3C2(C)C)CC1 (some centres unmarked) [HHY-322, AcYRLGRW-DOTA-Cy5.5]",half-life,[1]; First Half Life (h),1.67 h
same,half-life,[1]; Terminal Half Life (h),13 h
same,Terminal Half Life,"[2]; male, C57BL/6J, mouse, in vivo",12.5 h
CC(C)CC(=O)N[C@H](C(=O)N[C@H](C(=O)N[C@@H](CC(C)C)[C@@H](O)CC(=O)N[C@@H](C)C(=O)N[C@@H](CC(C)C)[C@@H](O)CC(=O)NCCOCCOCCNC(=O)CN1CCN(CC(=O)NCCOCCOCCN)CCN(CC(=O)NCCOCCOCCN)CCN(CC(=O)NCCOCCOCCN)CC1)C(C)C)C(C)C [HHY-325],IC50,[4],2.9 nM
"CC(C)CC(=O)N[C@H](C(=O)N[C@H](C(=O)N[C@@H](CC(C)C)[C@@H](O)CC(=O)N[C@@H](C)C(=O)N[C@@H](CC(C)C)[C@@H](O)CC(=O)O)C(C)C)C(C)C [Pepstatin A, reference compound] (Isovaleryl-VV[Sta]A[Sta]-OH)",effect on acid-stimulated GAG release / degradation (FIG. 3),[3]; pH 5.0,no effect at all; also recorded: not effective
same,solubility,[6],820 µg/mL
AcNH-DOTA-Cy 5.5 [HHY-306],First Half Life,"[2]; mouse, in vivo",0.5 h
same,Terminal Half Life,"[2]; mouse, in vivo",9.8 h
